Measured values: paper PMC9445010

How the values were obtained:
[1] = target: pMMO monomer consisting of PmoA, PmoB, and PmoC (Methylococcus capsulatus (Bath) (endogenous in M. capsulatus (Bath))) (UniProt Q607G3); test: cryo-EM structure; cryoET with subtomogram averaging of isolated M. capsulatus (Bath) membranes, no detergent; 25 mM PIPES pH 7.3, 250 mM NaCl; single trimer 4.8 Å, 7-particle unit 10 Å, three trimers 12 Å; 3-fold symmetry applied
[2] = target: particulate methane monooxygenase (pMMO) trimer (Methylococcus capsulatus (Bath) (endogenous in M. capsulatus (Bath))) (UniProt Q607G3)

Substance	stoichiometry N [1]	methane oxidation activity of SEC fractions with larger pMMO nanodisc arrays against single particle nanodiscs (13C-methanol by GC/MS, duroquinol reductant, 45 °C) [2] [fold]
pMMO monomer consisting of PmoA, PmoB, and PmoC (from UniProt Q607G3 1-247; G1UBD1 33-414) (complex)	3	–
particulate methane monooxygenase (pMMO) trimer (from UniProt Q607G3 1-247; G1UBD1 33-414) (complex)	–	< 3
